Measured values taken from paper PMC9860126, “Mechanistic insights into the nickel-dependent allosteric response of the Helicobacter pylori NikR transcription factor”.
Numbering of substitutions follows the chain as printed.

T1: HpNikR WT (Helicobacter pylori G27 (from vector …, UniProt A1YSQ9 1-148))
T1 sequence: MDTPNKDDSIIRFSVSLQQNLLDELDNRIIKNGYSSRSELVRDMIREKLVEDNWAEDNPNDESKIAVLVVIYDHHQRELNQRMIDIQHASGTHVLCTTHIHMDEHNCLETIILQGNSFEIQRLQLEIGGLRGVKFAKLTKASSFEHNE

B1: ureA promoter 32 bp (FA) (dsDNA)
DNA 1: ATATAACACTAATTCATTTTAAATAATAATTA
DNA 2: TAATTATTATTTAAAATGAATTAGTGTTATAT
B2: ureA-perf promoter 32 bp (dsDNA)
DNA 1: B1 DNA 1 with A6T, C7T, C9T
DNA 2: B1 DNA 2 with G24A, G26A, T27A

Key:
Assay in all cases: fluorescence anisotropy; apo (no Ni); FA: 5 nM DNA, 20 mM Tris pH 7.6, 100 mM NaCl, 3 mM MgSO4, temperature not stated (Ni loading 1.2 eq NiSO4 per monomer at RT). EMSA: 20 mM Tris pH 7.5, 100 mM KCl, 3 mM MgCl2, 0.1% IGEPAL, 5% glycerol, 0.1 mg/ml herring sperm DNA, RT; gel with 800 uM NiSO4 at 4 C
[1] = biological target: HpNikR E62A (Helicobacter pylori G27, UniProt A1YSQ9 1-148, E62A); details: protein: recombinant; tags: none stated; chain copies: 4; label: fluorescein on internal thymine (T14 of strand 1); blunt
[2] = biological target: HpNikR N32A (Helicobacter pylori G27, UniProt A1YSQ9 1-148, N32A); details: protein: recombinant; tags: none stated; chain copies: 4; label: fluorescein on internal thymine (T14 of strand 1); blunt
[3] = biological target: HpNikR W54A (Helicobacter pylori G27, UniProt A1YSQ9 1-148, W54A); details: protein: recombinant; tags: none stated; chain copies: 4; label: fluorescein on internal thymine (T14 of strand 1); blunt
[4] = biological target: HpNikR K48A (Helicobacter pylori G27, UniProt A1YSQ9 1-148, K48A); details: protein: recombinant; tags: none stated; chain copies: 4; label: fluorescein on internal thymine (T14 of strand 1); blunt
[5] = biological target: HpNikR E56A (Helicobacter pylori G27, UniProt A1YSQ9 1-148, E56A); details: protein: recombinant; tags: none stated; chain copies: 4; label: fluorescein on internal thymine (T14 of strand 1); blunt
[6] = biological target: HpNikR T92A (Helicobacter pylori G27, UniProt A1YSQ9 1-148, T92A); details: protein: recombinant; tags: none stated; chain copies: 4; label: fluorescein on internal thymine (T14 of strand 1); blunt
[7] = biological target: HpNikR I127A (Helicobacter pylori G27, UniProt A1YSQ9 1-148, I127A); details: protein: recombinant; tags: none stated; chain copies: 4; label: fluorescein on internal thymine (T14 of strand 1); blunt
[8] = biological target: HpNikR Q81A (Helicobacter pylori G27, UniProt A1YSQ9 1-148, Q81A); details: protein: recombinant; tags: none stated; chain copies: 4; label: fluorescein on internal thymine (T14 of strand 1); blunt
[9] = biological target: T1, HpNikR WT; details: protein: recombinant; tags: none stated (untagged purification); chain copies: 4; label: fluorescein on internal thymine (T14 of strand 1); blunt
[10] = biological target: HpNikR K31A (Helicobacter pylori G27, UniProt A1YSQ9 1-148, K31A); details: protein: recombinant; tags: none stated; chain copies: 4; label: fluorescein on internal thymine (T14 of strand 1); blunt

Row | Binder | Kd [1] [µM] | Kd [2] [nM] | Kd [3] [µM] | binding result [4] | Kd [5] [nM] | Kd [6] [nM] | Kd [7] [µM] | Kd [8] [nM] | Kd [9] [µM] | Kd [10] [nM]
1 | B1 | 2.6 ± 0.2 | 1600 ± 400 | 6.1 ± 1 | no binding | 1800 ± 300 | 2200 ± 200 | 4 ± 1.3 | 2000 ± 500 | 4.9 ± 1.7 | 2300 ± 500
2 | B2 | 4.2 ± 0.7 | 1900 ± 700 | 3.7 ± 0.2 | no binding | 1200 ± 100 | 2500 ± 400 | 4 ± 0.3 | 1600 ± 600 | 4.1 ± 1.1 | 1300 ± 200
